# In patent US20080020978A1 (Amgen, published 2008):
# Square brackets hold non-standard residues; d marks the D form. 1Nal = N[C@@H](Cc1cccc2ccccc12)C(=O)O; hArg = N=C(N)NCCCC[C@H](N)C(=O)O; Tic = O=C(O)[C@@H]1Cc2ccccc2CN1; Cit = NC(=O)NCCC[C@H](N)C(=O)O; Nva = CCC[C@H](N)C(=O)O; Aib = CC(C)(N)C(=O)O
# Target: T1, CGRP1 receptor (CRLR/RAMP1 complex) of human neuroblastoma SK-N-MC cells (human, UniProt Q16602 23-461; O60894 27-148)
# Assay: cell-based or functional assay
# T1 sequence (Q16602 23-461, chain 1 of 2): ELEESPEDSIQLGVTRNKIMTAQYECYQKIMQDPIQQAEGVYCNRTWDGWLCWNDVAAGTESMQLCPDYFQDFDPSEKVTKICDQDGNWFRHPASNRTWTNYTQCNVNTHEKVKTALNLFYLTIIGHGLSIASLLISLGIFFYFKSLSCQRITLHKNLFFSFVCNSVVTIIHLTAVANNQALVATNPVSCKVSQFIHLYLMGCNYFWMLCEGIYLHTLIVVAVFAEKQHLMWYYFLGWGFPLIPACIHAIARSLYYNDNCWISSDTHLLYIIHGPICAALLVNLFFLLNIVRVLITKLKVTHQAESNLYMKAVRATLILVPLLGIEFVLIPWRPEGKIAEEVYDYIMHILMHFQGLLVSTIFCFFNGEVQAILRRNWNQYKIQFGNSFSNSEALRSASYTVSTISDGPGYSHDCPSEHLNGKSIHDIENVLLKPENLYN
# T1 sequence (O60894 27-148, chain 2 of 2): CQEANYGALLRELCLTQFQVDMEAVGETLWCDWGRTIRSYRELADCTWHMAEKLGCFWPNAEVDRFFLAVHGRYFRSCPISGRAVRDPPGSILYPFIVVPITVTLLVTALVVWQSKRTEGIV
row,Binder,IC50 [nM]
1,Ac-WVTHRLAGLLSRSGGVVRCNFVPTDVGPFAF-NH2 [SEQ ID NO 764],0.91
2,Ac-WVTHRLAGLLSRSGGVVRC(30 kDa MeO‑PEG)NFVPTDVGPFAF-NH2 [SEQ ID NO 767],7.86
3,Ac-WVTHRLAGLLSRSGGVVRC(5 kDa MeO‑PEG)NFVPTDVGPFAF-NH2 [SEQ ID NO 765],2.52

# Target: T1, CGRP1 receptor (CRLR/RAMP1 complex) of …
# Assay: cell-based or functional assay
# Remark: another data set of the same source
Peptide IC50 [nM],PEG-peptide IC50 [nM],Binder
1.42,–,Ac-WVTHQLAGLLSQSGGVV[hArg]KNFVPTDVGPFAF-NH2 (SMILES CC(=O)N[C@@H](Cc1c[nH]c2ccccc12)C(=O)N[C@H](C(=O)N[C@H](C(=O)N[C@@H](Cc1c[nH]cn1)C(=O)N[C@@H](CCC(N)=O)C(=O)N[C@@H](CC(C)C)C(=O)N[C@@H](C)C(=O)NCC(=O)N[C@@H](CC(C)C)C(=O)N[C@@H](CC(C)C)C(=O)N[C@@H](CO)C(=O)N[C@@H](CCC(N)=O)C(=O)N[C@@H](CO)C(=O)NCC(=O)NCC(=O)N[C@H](C(=O)N[C@H](C(=O)N[C@@H](CCCCNC(=N)N)C(=O)N[C@@H](CCCCN)C(=O)N[C@@H](CC(N)=O)C(=O)N[C@@H](Cc1ccccc1)C(=O)N[C@H](C(=O)N1CCC[C@H]1C(=O)N[C@H](C(=O)N[C@@H](CC(=O)O)C(=O)N[C@H](C(=O)NCC(=O)N1CCC[C@H]1C(=O)N[C@@H](Cc1ccccc1)C(=O)N[C@@H](C)C(=O)N[C@@H](Cc1ccccc1)C(N)=O)C(C)C)[C@@H](C)O)C(C)C)C(C)C)C(C)C)[C@@H](C)O)C(C)C) [SEQ ID NO 885]
0.41,–,WVTHXLAGLLSXSGGVVXKNFVPTDVGPFAF (Ac-WVTH[Cit]LAGLLS[Cit]SGGVV[hArg]KNFVPTDVGPFAF-NH2) [SEQ ID NO 871]
1.81,–,WVTHXLAGLLSXSGGVVRKNFVXTDVGPFAF (Ac-WVTH[Cit]LAGLLS[Cit]SGGVVRKNFV[Hyp]TDVGPFAF-NH2) [SEQ ID NO 877]
4.96,–,WVTHXLAGLLSXSGGVVXKNFVPTDVGPFAF (Ac-WVTH[hCit]LAGLLS[hCit]SGGVV[hArg]KNFVPTDVGPFAF-NH2) [SEQ ID NO 886]
1.63,–,WVTHXLAGLLSXSGGVVRKNFVPTDVGPFAF (Ac-WVTH[NMeArg]LAGLLS[NMeArg]SGGVVRKNFVPTDVGPFAF-NH2) [SEQ ID NO 875]
16.1,–,Ac-WVTH[Cit]LAGLAS[Cit]SGGVVRKNFVPTDVGPFAF-NH2 [SEQ ID NO 870]
4.2,–,Ac-WVTHRLAGLLSRSGGVVRKNFV[Aib]TDVGPFAF-NH2 (SMILES CC(=O)N[C@@H](Cc1c[nH]c2ccccc12)C(=O)N[C@H](C(=O)N[C@H](C(=O)N[C@@H](Cc1c[nH]cn1)C(=O)N[C@@H](CCCNC(=N)N)C(=O)N[C@@H](CC(C)C)C(=O)N[C@@H](C)C(=O)NCC(=O)N[C@@H](CC(C)C)C(=O)N[C@@H](CC(C)C)C(=O)N[C@@H](CO)C(=O)N[C@@H](CCCNC(=N)N)C(=O)N[C@@H](CO)C(=O)NCC(=O)NCC(=O)N[C@H](C(=O)N[C@H](C(=O)N[C@@H](CCCNC(=N)N)C(=O)N[C@@H](CCCCN)C(=O)N[C@@H](CC(N)=O)C(=O)N[C@@H](Cc1ccccc1)C(=O)N[C@H](C(=O)NC(C)(C)C(=O)N[C@H](C(=O)N[C@@H](CC(=O)O)C(=O)N[C@H](C(=O)NCC(=O)N1CCC[C@H]1C(=O)N[C@@H](Cc1ccccc1)C(=O)N[C@@H](C)C(=O)N[C@@H](Cc1ccccc1)C(N)=O)C(C)C)[C@@H](C)O)C(C)C)C(C)C)C(C)C)[C@@H](C)O)C(C)C) [SEQ ID NO 879]
2.92,–,WVTHRXAGLLSRXGGVVRKNFVPTDVGPFAF (Ac-WVTHR[NMeLeu]AGLLSR[NMeSer]GGVVRKNFVPTDVGPFAF-NH2) [SEQ ID NO 874]
63,–,Ac-WVTH[Cit][Nva]AG[Nva][Nva]T[Cit]SGGVVRKNFVPTDVGPFAF-NH2 (SMILES CCC[C@H](NC(=O)CNC(=O)[C@H](C)NC(=O)[C@H](CCC)NC(=O)[C@H](CCCNC(N)=O)NC(=O)[C@H](Cc1c[nH]cn1)NC(=O)[C@@H](NC(=O)[C@@H](NC(=O)[C@H](Cc1c[nH]c2ccccc12)NC(C)=O)C(C)C)[C@@H](C)O)C(=O)N[C@@H](CCC)C(=O)N[C@H](C(=O)N[C@@H](CCCNC(N)=O)C(=O)N[C@@H](CO)C(=O)NCC(=O)NCC(=O)N[C@H](C(=O)N[C@H](C(=O)N[C@@H](CCCNC(=N)N)C(=O)N[C@@H](CCCCN)C(=O)N[C@@H](CC(N)=O)C(=O)N[C@@H](Cc1ccccc1)C(=O)N[C@H](C(=O)N1CCC[C@H]1C(=O)N[C@H](C(=O)N[C@@H](CC(=O)O)C(=O)N[C@H](C(=O)NCC(=O)N1CCC[C@H]1C(=O)N[C@@H](Cc1ccccc1)C(=O)N[C@@H](C)C(=O)N[C@@H](Cc1ccccc1)C(N)=O)C(C)C)[C@@H](C)O)C(C)C)C(C)C)C(C)C)[C@@H](C)O) [SEQ ID NO 873]
2.33,–,Ac-WVTHRLAGLLSRSGGVVRKNFV[Tic]TDVGPFAF-NH2 (SMILES CC(=O)N[C@@H](Cc1c[nH]c2ccccc12)C(=O)N[C@H](C(=O)N[C@H](C(=O)N[C@@H](Cc1c[nH]cn1)C(=O)N[C@@H](CCCNC(=N)N)C(=O)N[C@@H](CC(C)C)C(=O)N[C@@H](C)C(=O)NCC(=O)N[C@@H](CC(C)C)C(=O)N[C@@H](CC(C)C)C(=O)N[C@@H](CO)C(=O)N[C@@H](CCCNC(=N)N)C(=O)N[C@@H](CO)C(=O)NCC(=O)NCC(=O)N[C@H](C(=O)N[C@H](C(=O)N[C@@H](CCCNC(=N)N)C(=O)N[C@@H](CCCCN)C(=O)N[C@@H](CC(N)=O)C(=O)N[C@@H](Cc1ccccc1)C(=O)N[C@H](C(=O)N1Cc2ccccc2C[C@H]1C(=O)N[C@H](C(=O)N[C@@H](CC(=O)O)C(=O)N[C@H](C(=O)NCC(=O)N1CCC[C@H]1C(=O)N[C@@H](Cc1ccccc1)C(=O)N[C@@H](C)C(=O)N[C@@H](Cc1ccccc1)C(N)=O)C(C)C)[C@@H](C)O)C(C)C)C(C)C)C(C)C)[C@@H](C)O)C(C)C) [SEQ ID NO 876]
1.6,–,Ac-[1Nal]VTH[Cit]LAGLLS[Cit]SGGVVRKNFVPTDVGPFAF-NH2 (SMILES CC(=O)N[C@@H](Cc1cccc2ccccc12)C(=O)N[C@H](C(=O)N[C@H](C(=O)N[C@@H](Cc1c[nH]cn1)C(=O)N[C@@H](CCCNC(N)=O)C(=O)N[C@@H](CC(C)C)C(=O)N[C@@H](C)C(=O)NCC(=O)N[C@@H](CC(C)C)C(=O)N[C@@H](CC(C)C)C(=O)N[C@@H](CO)C(=O)N[C@@H](CCCNC(N)=O)C(=O)N[C@@H](CO)C(=O)NCC(=O)NCC(=O)N[C@H](C(=O)N[C@H](C(=O)N[C@@H](CCCNC(=N)N)C(=O)N[C@@H](CCCCN)C(=O)N[C@@H](CC(N)=O)C(=O)N[C@@H](Cc1ccccc1)C(=O)N[C@H](C(=O)N1CCC[C@H]1C(=O)N[C@H](C(=O)N[C@@H](CC(=O)O)C(=O)N[C@H](C(=O)NCC(=O)N1CCC[C@H]1C(=O)N[C@@H](Cc1ccccc1)C(=O)N[C@@H](C)C(=O)N[C@@H](Cc1ccccc1)C(N)=O)C(C)C)[C@@H](C)O)C(C)C)C(C)C)C(C)C)[C@@H](C)O)C(C)C) [SEQ ID NO 872]
6.19,–,Ac-WVTH[Cit]LAGLASRPGGVVRKNFVPTDVGPFAF-NH2 (SMILES CC(=O)N[C@@H](Cc1c[nH]c2ccccc12)C(=O)N[C@H](C(=O)N[C@H](C(=O)N[C@@H](Cc1c[nH]cn1)C(=O)N[C@@H](CCCNC(N)=O)C(=O)N[C@@H](CC(C)C)C(=O)N[C@@H](C)C(=O)NCC(=O)N[C@@H](CC(C)C)C(=O)N[C@@H](C)C(=O)N[C@@H](CO)C(=O)N[C@@H](CCCNC(=N)N)C(=O)N1CCC[C@H]1C(=O)NCC(=O)NCC(=O)N[C@H](C(=O)N[C@H](C(=O)N[C@@H](CCCNC(=N)N)C(=O)N[C@@H](CCCCN)C(=O)N[C@@H](CC(N)=O)C(=O)N[C@@H](Cc1ccccc1)C(=O)N[C@H](C(=O)N1CCC[C@H]1C(=O)N[C@H](C(=O)N[C@@H](CC(=O)O)C(=O)N[C@H](C(=O)NCC(=O)N1CCC[C@H]1C(=O)N[C@@H](Cc1ccccc1)C(=O)N[C@@H](C)C(=O)N[C@@H](Cc1ccccc1)C(N)=O)C(C)C)[C@@H](C)O)C(C)C)C(C)C)C(C)C)[C@@H](C)O)C(C)C) [SEQ ID NO 869]

# Second part, the binder before the results:
Binder,Peptide IC50 [nM],PEG-peptide IC50 [nM]
WVTHXLAGLLSXSGGVVXKNFVPTDVGPFAF (Ac-WVTH[Cit]LAGLLS[Cit]SGGVV[hArg]KNFVPTDVGPFAF-NH2; PEG-conjugated (Table 2C: in most cases at Lys^25)) [PEG-peptide of SEQ ID NO 871],–,3.22
WVTHXLAGLLSXSGGVVXKNFVPTDVGPFAF (Ac-WVTH[Cit]LAGLLS[hArg]SGGVV[hArg]KNFVPTDVGPFAF-NH2; PEG-conjugated (Table 2C: in most cases at Lys^25)) [PEG-peptide of SEQ ID NO 880],–,2.06
"Ac-WVTH[Cit]LAGLAS[Cit]SGGVVRKNFVPTDVGPFAF-NH2 (also: PEG-conjugated, in most cases at Lys25) [PEG-peptide of SEQ ID NO 870]",–,> 1000
"Ac-[1Nal]VTH[Cit]LAGLLS[Cit]SGGVVRKNFVPTDVGPFAF-NH2 (also: PEG-conjugated, in most cases at Lys25) [PEG-peptide of SEQ ID NO 872]",–,11
"Ac-WVTH[Cit]LAGLASRPGGVVRKNFVPTDVGPFAF-NH2 (also: PEG-conjugated, in most cases at Lys25) [PEG-peptide of SEQ ID NO 869]",–,565
"Ac-WVTH[Cit]LAGLLSQSGGVV[hArg]KNFVPTDVGPFAF-NH2 (also: PEG-conjugated, in most cases at Lys25) [PEG-peptide of SEQ ID NO 883]",–,7.42
WVTHRXAGLLSRXGGVVRKNFVPTDVGPFAF (Ac-WVTHR[NMeLeu]AGLLSR[NMeSer]GGVVRKNFVPTDVGPFAF-NH2; PEG-conjugated (Table 2C: in most cases at Lys^25)) [PEG-peptide of SEQ ID NO 874],–,208
"Ac-WVTHQLAGLLS[Cit]SGGVV[hArg]KNFVPTDVGPFAF-NH2 (also: PEG-conjugated, in most cases at Lys25) [PEG-peptide of SEQ ID NO 884]",–,8.87
"Ac-WVTHQLAGLLSQSGGVV[hArg]KNFVPTDVGPFAF-NH2 (also: PEG-conjugated, in most cases at Lys25) [PEG-peptide of SEQ ID NO 885]",–,12.4
